This is an account of results in patent US20190367619A1 (ARGENX, published 2019).

For test [1], the target named is T1, human galectin-10-His (human).
T1 construct: The last M of the tag may be Met1 of galectin-10; also called humanGal10-His; hGal10
T1 chain: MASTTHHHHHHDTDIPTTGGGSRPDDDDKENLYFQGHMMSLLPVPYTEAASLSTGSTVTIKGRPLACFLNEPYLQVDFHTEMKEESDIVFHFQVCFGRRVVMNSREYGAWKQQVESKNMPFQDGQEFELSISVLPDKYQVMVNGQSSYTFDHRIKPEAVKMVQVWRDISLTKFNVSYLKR
The test is described as follows: SPR Biacore (summary table). How it is done:
(§1) The binding properties of the scFv-human Fc panel to galectin-10 were analyzed on the Biacore T3000. For this purpose, a CM5 Chip was coated with polyclonal anti-human Fc at 8000 RU, then a fixed concentration of the scFv-human Fc panel (1.5 μg/mL) were captured to reach a binding signal around 150 RU. Finally, a serial dilution of human or cynomolgus WGS isoform of galectin-10-His (serial dilution, 1 over 2 from 5 μg/mL, 6 points of dilution) was injected. Raw data were analyzed via BIA evaluation software with a blank subtraction (4-3). Finally, the kd/KD and Rmax of each scFv-human Fc to galectin-10-His was determined using the Fit Kinetics simultaneous ka/kd/Binding with mass transfer/Local Rmax on BIA evaluation software.
(In general: In SPR one partner is held on a chip, and binding of the other changes the refractive index at the surface.)

The target in test [2] is T2, cynomolgus galectin-10-His, WGS isoform (cynomolgus).
T2 construct: also called cynoGal10-WGS; not shown: His tag
T2 chain: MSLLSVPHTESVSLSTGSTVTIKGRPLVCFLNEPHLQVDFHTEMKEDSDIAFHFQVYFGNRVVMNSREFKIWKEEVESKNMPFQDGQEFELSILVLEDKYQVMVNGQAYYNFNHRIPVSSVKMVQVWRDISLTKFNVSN
Description: SPR Biacore (summary table). How it is done: as §1

Test [3] addresses T1, human galectin-10-His. Description: binding ELISA (summary table). How it is done:
(§2) In a similar setup to that used during the initial screening, the relative binding properties of the 11 new scFv-human Fc clones were analyzed by ELISA. Briefly, a Maxisorp plate was coated overnight with human or cynomolgus WGS or YRT isoforms of galectin-10-His at 0.2 μg/mL and blocked with PBS 1% casein, before being incubated with a serial dilution of the scFv-human Fc fusion molecules (from 100 nM, dilution 1/5, 8 points of dilutions). After several washing steps, detection of the bound scFv-human Fc was carried out with an anti-human Fc-HRP antibody (Jackson ImmunoResearch, Catalog 109-035-008). Absorbance was measured at 450 nm (reference at 620 nm) with Tecan instrument. Finally, the raw data (OD values) were plotted on GraphPad Prism 7.01. The EC50 values of each clone, calculated with a non-linear regression (log(agonist) vs. response Variable slope (four parameters)) are reported in Table 19 below. As a positive control, clone 6F05 from the previous galectin-10 antibody panel was included.
On the technique in general: ELISA stands for enzyme-linked immunosorbent assay.

Test [4] has as its target T2, cynomolgus galectin-10-His, WGS isoform. Description: binding ELISA (summary table). How it is done:
as §2

Test [5] concerns the target T3, cynomolgus galectin-10-His, YRT isoform (cynomolgus).
T3 construct: also called cynoGal10-YRT; not shown: His tag
T3 chain: T2 chain with K23E, G24A, L31F, F69Y, K70R, I71T, S92R
The test is described as follows: binding ELISA (summary table). How it is done:
as §2

Test [6] has as its target T1, human galectin-10-His. Description: ELISA, coated antigen 0.2 ug/mL. The method, then: as §2
Test [7] addresses T2, cynomolgus galectin-10-His, WGS isoform. Description: ELISA, coated antigen 0.2 ug/mL. The method, then: as §2
In test [8] the target is T3, cynomolgus galectin-10-His, YRT isoform. Description: ELISA, coated antigen 0.2 ug/mL. How it is done:
as §2

Test [9] has as its target T1, human galectin-10-His. The test is described as follows: SPR Biacore T3000, scFv-human Fc captured. How it is done: as §1
The target in test [10] is T2, cynomolgus galectin-10-His, WGS isoform. The test is described as follows: SPR Biacore T3000, scFv-human Fc captured. The method, then:
as §1

Residue numbers refer to the chain shown, from its start.

B1: 10D02 scFv-human Fc (Fc fusion)
scFv: EVQLVESGGGLVQPGGSLRVSCAASGFTFSSYYMSWVRQAPGKGLEWVSGIVTGGGRTHYTDSVKGRFTITRDNAKNTLYLQMNSLRPEDTALYYCARVNGVVTNYDYWGQGTQVTVSSGGGGSGGGGSGGGGSQAVLTQPPSVSGSPGKTVTISCAGTSSDVGYGNYVSWYQQLPGMAPKLLIYDVNKRASGITDRFSGSKSGNTASLTISGLQSEDEADYFCASYRSPNNVVFGQGTHLTVL
notes: also called 010D02; not shown: CH2-CH3 constant domains of human IgG1 (pUPEX50 scFv-Fc fusion vector)
By Kd is commonly meant a measure of binding affinity in units of concentration. A word on the koff: it is the rate constant with which the complex falls apart. For orientation: kon means the second-order rate constant of association. Broadly, the EC50 is the concentration that produces a half-maximal response. The low end stands for a more potent agent, the high end for a less potent agent. For B1, the Kd in the test with human galectin-10-His [1] was 2 nM; in [2], 2.7 nM; in the test with human galectin-10-His [9], 2 nM; in [10], 2.7 nM. The koff is 0.00066 s⁻¹ with human galectin-10-His [1], 0.00122 s⁻¹ in test [2], 0.00066 s⁻¹ in the test with human galectin-10-His [9] and 0.00122 s⁻¹ in [10]. In addition, the kon stood at 340000 M⁻¹ s⁻¹ in the test with human galectin-10-His [1], 450000 M⁻¹ s⁻¹ in [2], 340000 M⁻¹ s⁻¹ with human galectin-10-His [9] and 450000 M⁻¹ s⁻¹ in [10]. Moreover, the concentration for a half-maximal effect (EC50) with human galectin-10-His [3] was found to be 0.56 nM; in test [4] it was 1.12 nM; in [5] it was 1.4 nM; with human galectin-10-His [6] it was 0.56 nM; in test [7], 1.12 nM; in test [8], 1.4 nM. The Bmax turned out to be 1.9 OD with human galectin-10-His [6], 3.1 OD in test [7] and 2 OD in test [8].
